# Experimental data published in patent US8071348B2, “Protein tyrosine phosphatase substrate-trapping double mutant and uses thereof” (Albert Einstein College of Medicine of Yeshiva University, priority 2002, dated 2011).
# [ ]: non-standard residue; d: D form. F2Pmp = N[C@@H](Cc1ccc(C(F)(F)P(=O)(O)O)cc1)C(=O)O
# B1: PTP1B/D181A/Q262A, catalytic domain (residues 1 to 321) (enzyme, human, UniProt P18031 1-321, looked up)
# chain: MEMEKEFEQIDKSGSWAAIYQDIRHEASDFPCRVAKLPKNKNRNRYRDVSPFDHSRIKLHQEDNDYINASLIKMEEAQRSYILTQGPLPNTCGHFWEMVWEQKSRGVVMLNRVMEKGSLKCAQYWPQKEEKEMIFEDTNLKLTLISEDIKSYYTVRQLELENLTTQETREILHFHYTTWPAFGVPESPASFLNFLFKVRESGSLSPEHGPVVVHCSAGIGRSGTFCLADTCLLLMDKRKDPSSVDIKKVLLEMRKFRMGLIATADQLRFSYLAVIEGAKFIMGDSSVQDQWKELSHEDLEPPPEHIPPPPRPPKRILEPHN
# notes: range 1-321; Used in vitro (ITC, kinetics); also called PTP1B substrate-trapping double mutant
# Test system: EGF receptor
# Assay: Substrate protection: EGF receptor tyrosine phosphorylation in COS1 cells expressing PTP1B forms (anti-pTyr Western blot)
# Assay type: cell-based, Monkey
# Conditions: COS1 cell lysates, anti-pTyr immunoblot (FIG. 4)
molecule,measurement,value
B1,level of pTyr in the EGF receptor / enhancement of EGF receptor phosphorylation,most pronounced
same,"protection of phosphorylated EGF receptors, fold better than D181A",more than 3 fold
